Reference: US20130244253A1

Biological target: TGF-β receptors on cultured rat primary hepatic stellate cells
Assay: cell-based or functional assay

Which expression of the Collagen(I) α1 gene in cultured rat primary hepatic stellate cells does the source give for “purified recombinant NS3 protein (scNS4A-NS3 protease with trx-His-S tag) (enzyme)” here?
The expression of the Collagen(I) α1 gene in cultured rat primary hepatic stellate cells was 6 times.
